According to the nanobody polyreactivity screen of Harvey et al. (2022):

Assay: yeast display, Sf9 membrane polyspecificity reagent, FACS + sequencing; frameworks hold sequencing errors
Summary of the method: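 Galactose induction of a Saccharomyces cerevisiae BJ5465 synthetic nanobody display library ran 36–48 hours. The cells were then stained for 1 hour at 4 °C with 10% biotinylated, detergent-solubilized Sf9 membrane reagent, pulled down on streptavidin microbeads and FACS-sorted into low and high (top ~1%) gates on expression and reagent-binding fluorescence. Labels for polyreactivity follow the gate of origin.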

| Sequence | polyreactivity (PSR sort gate) |
| --- | --- |
| QVQLVESGGRLVQAGGSLRLSCAASGRTFRPYAMGWYRQAPGKERELVAAISSRGSSTYYADSVKGRFTISRDNAKNTVYLQMNSLKPEDTAVYYCAARSYWGGLRYDYWGQGTQVTVSS | high polyreactivity |
| QVQLVESVGGLDQAGGSLRLTCAASVSIFRNYAMGWYRQAPGKERELVASIRYSGGRTNYADSVKGRFTISRDNAKNTVYVPMNSLTPEDTAVYYCAAATHYWYFYSFKDKSGFRGYYWGQGTHVTVSS | high polyreactivity |
| QVQLVESGGGLVQAGGSLRLSCAASGRIFGGYAMGWYRPAPGKERELVAAISSRGGSTYYADSVKGRFTISRDNAKNTVYLQMNSLKPEDTAVYYCAADGRVKGWGQGTQVTVSS | high polyreactivity |
| QVQLVESGGGLVQAGGSLRLSCAASGFTFWRYAMGWYRQAPGKDRELVAAISSSGGSTYYADSVKGRFTISRDNAKNTVYLQMNSLKPEVTAVYYCATSVRFVRGWGYSYRGYDYWGQGTQVTVSS | high polyreactivity |
| QVQLVESGGGLVQAGGSLRLRCAASGSTFRNAMGWYRQAPGKERELVAAISYSGGRTYYADSVKGRFTISRDNAKNTVYLQMNSLKPEDTAVYYCASPGVSWSTRSYYYWGQGTQVTVSS | high polyreactivity |
| QVQLVESGGGLVQAGGSLRLSCAASGSTFWINAMGWYRQAPGKERELVADISHSAGNTYYADSVKGRFTISRDNAKNTVYLQMNSLKPEDTAVYYCAARRWGVRSGDYYWGQGTQVTVSS | low polyreactivity |
| QVQLVESGGGLVQAGGSIRLSCAASGGTFSYYAMGWYRQAPGKESELVAAISGNGDTTYYADSVKGRFTISRDNAKNTDYVQMNSLKPEDTAVYYCATAFSYGGGAYDYWGQGTLVTVSS | low polyreactivity |
| QVQLVESGGGLVQAGGSLRLSCAASGSNFWRKAMGWYRQAPGKERELVAAITCGGSTYYADSVKGRCTISRDNAKNTVYLQMNSLKTEVTAVYYCAAGYSYRYGYWGQGTQVTVSS | low polyreactivity |
| QVQLVESGGGLVQAGGSLRLSCAASGSTFVGYTLGWSRQAPGNERELVASLSWDGGSTYYADSVKGRFTISRDNAKNTVYLQMNSLKPEDTAVYYCNADQGIIGAYTNSLPEYDYWGLGTQVTVSS | low polyreactivity |
| QVQLVESGGGLVQAGGSLRLSCAASGRIFKVYAMGWYRQAPGKERELVAAITSRGGSTYYADSVKGRFTISRDNAKNTVYLQMNSLKPEDTAVYYCAAARGLPSNKYYYWGQGTQVTVSS | high polyreactivity |
| QVQLVESGGGLVQAGGSLRLSCAASGSIFYPYAMGWYRQANGKERELDAAITWRGGRTYYADSVKGRFTISRDNAKNTVYLQMNSLKPEDTAVYYCAAGWLTRSYEYDYWGQGTQVTVSS | high polyreactivity |
| QVQLVESGGGLVQAGGSLRLSCAASGRIFDYYAMGWYRQAPGKERELVAGITSDGDITYYADSVKGRFTISRDNAKNTVYLQMNSLKPEDTAVYYCAADSPHPVRYDYWGQGTQVTVSS | low polyreactivity |
| QVQLVESGGGLVQAGGSLRLSCAASGSIFYRYAMGWNRQAPGKEKELVAAISRSGGRTYYADSVKGRFTISRDNAMNTVYLQMNSLKPEDTAVYYCAAESTVGTDLGGYSWGQGSQVTVSS | high polyreactivity |
| QVQLVETGGGLVQAGGSLRLSCAASGRIFHLYAMGWYRQAPGKERELVAAITFSGGSTYYADSVKGRFTISRDTAKNTVYLQMNSLKPEDTAVYYCAKRSFYWFSSRLPFKYDYWGQGTQVTVSS | low polyreactivity |
| QVQLVESGGGIVQAGGSLRLSCAASGSTFVTHAMGCYRQAPGKEREFVAAISWNSTSTYFADSVKGRFTISRDHAKNTVYLQMNSLKPEDTAVYYCNATTFAFSPSLKGAYGYWGQGTQVTVSS | low polyreactivity |
| QVQLVESGGALVQAGGSLRLICAASGRIFPRNVMGWYRQAPGKERELVAAISSRGTRTYYADSVKGRFTISRDNAKNTVYLQMYSLKPEDTAVYYCAADGPYEGYDYWGQGTQVTVSS | high polyreactivity |
| QVQLVESGGGLVQAGGSLRLSCAASGRTFSNYAMGWYRQAPGKERELVAAITGSGGSTYYADSVKGRFTISRDNAKNTVYLQMHSLKPEDTAVYYCNAYRASKYLTGNGHDYWGQGTQVTVSS | low polyreactivity |
| QVQLVESGGGLVQAGGSLRLICAASGSTLKYYAMGWSRPAPGKERELVARITRSSGSTYYADSVKGRFTISRDNAKNTVYLQMNSMKPEDTAVYYCNKVYKSYYWGGYDWGQGTQVTVSS | high polyreactivity |
| QVQLVESGGGLVQAGGSLRLICAASGRIFNSYAMGWFRQAPGKEMELVAAISRNGGITYYADSVKGRFTISRDNAKNTVYFQMNSLKPEDTAVYYCNADSSRRRYSSDYWGQGTQVTVSS | high polyreactivity |
| QVQLVESGGGLVQAGGSLRLSCAASGSTFYFNAMGWSRQAPGKERELVAGISSGGSTYYADSVKGRFTISRDNAKNTVYLQMNSLKPEDTAVYYCAATWLVERPVSYTEYGYWGQGTQVTVSS | low polyreactivity |
| QVQLVESGGGLVPAGGSLRLSCAASGRTFPYYDMGWYRQAPGKERELVAAITSGGTTNYADSVKGRFTISRDNAKNTVYLQMNSLKPEDTAVYYCAAGSPWYYFSSYGYWGQGTQVTVSS | low polyreactivity |
